Assay [1] concerns the target T1, recombinant human SOST (rhSOST) (human, UniProt Q9BQB4 24-213).
T1 construct: Treated as one molecule; also called recombinant human SOST protein; human sclerostin
T1 sequence: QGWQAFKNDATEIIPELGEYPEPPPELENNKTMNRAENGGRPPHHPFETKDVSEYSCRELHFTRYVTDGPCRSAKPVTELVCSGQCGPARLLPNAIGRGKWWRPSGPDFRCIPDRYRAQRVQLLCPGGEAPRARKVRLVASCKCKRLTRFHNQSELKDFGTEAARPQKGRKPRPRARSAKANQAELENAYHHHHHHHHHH
The experiment in a line: SPR Biacore T200, IgG captured via anti-human Fc, rhSOST analyte, 37 C. On the technique in general: Surface plasmon resonance follows binding to a sensor surface in real time, without labels.

Assay [2] deals with T1, recombinant human SOST (rhSOST). The experiment in a line: cell-based or functional assay.

Consider three molecules from patent WO2015087187A1 (dated 2015).

B1: DM21 (antibody, V domains shown)
VH: EVQLLESGGGLVQPGGSLRLSCAASGHTFSDYWMQWVRQAPGKGLEWIGAIYPGDGDTRYNQKFKDRFTISRDNSKNTLYLQMNSLRAEDTAVYYCARSMDYWGQGTLVTVSS
VL: DIVMTQSPDSLAVSLGERATINCRASKTVDSYGNSFMHWFQQKPGQPPKLLIYHSSNLESGVPDRFSGSGSGTDFTLTISSLQAEDVAVYYCLQTIEDPYTFGQGTKLEIK
notes: also called mH1/mL2
Take B1: in assay [1], the Kd worked out at 0.008 nM, the koff turned out to be 7.41e-05 s⁻¹ and the kon was found to be 8.86e+06 M⁻¹ s⁻¹. The “EC50, neutralization of rhSOST-mediated inhibition of Wnt-10B luciferase reporter activity in U-2OS-TF-Wnt10B cells” value in assay [2] was 5.53 ug/ml (printed 'Mg/ml').

B2: DM4 (antibody, human IgG2, kappa, V domains shown)
VH: EVQLLESGGGLVQPGGSLRLSCAASGHTFSDYWMQWVRQAPGKGLEWVGAIYPGDGDTRYNQKFKDRFTISRDNSKNTLYLQMNSLRAEDTAVYYCARSMDYWGQGTLVTVSS
VL: DIVMTQSPDSLAVSLGERATINCRASKTVDSYGNSFMHWFQQKPGQPPKLLIHHSSNLESGVPDRFSGSGSGTDFTLTISSLQAEDVAVYYCLQTIEFPYTFGQGTKLEIKR
notes: mAb names lost in this copy; also called mH10/mL13
Take B2: in assay [1], the Kd was 0.13 nM, the koff turned out to be 0.000508 s⁻¹ and the kon came out at 3.91e+06 M⁻¹ s⁻¹. Further, the “EC50, neutralization of rhSOST-mediated inhibition of Wnt-10B luciferase reporter activity in U-2OS-TF-Wnt10B cells” value in assay [2] is 2.07 ug/ml (printed 'Mg/ml').

B3: DP1 (antibody, human IgG2, kappa, V domains shown)
VH: EVQLVESGGGLVQPGGSLRLSCAASGFTFSIYAMSWVRQAPGKGLEWVALISGGDTYTYYADSVKGRFTISRDNAKNSLYLQMNSLRAEDTAVYYCARHGYDDFDYWGQGTLVTVSS
VL: DVVMTQSPLSLPVTLGQPASISCRSSQSLLDNDGETYLNWFQQRPGQSPRRLIYQVSKLDSGVPDRFSGSGSGTDFTLKISRVEAEDVGVYYCWQGTHFPHTFGGGTKVEIKR
notes: also called pH1/pL1
Turning to B3, in assay [1], the Kd is 3.7 nM, the koff came to 0.00667 s⁻¹ and the kon worked out at 1.8e+06 M⁻¹ s⁻¹. Also, in assay [2], the “EC50, neutralization of rhSOST-mediated inhibition of Wnt-10B luciferase reporter activity in U-2OS-TF-Wnt10B cells” value was 22 ug/ml (printed 'Mg/ml').

The Kd is a measure of binding affinity in units of concentration. By koff is commonly meant a measure of how fast the partners let go of each other. Broadly, the kon is the second-order rate constant of association.
